We go through four molecules from patent US20230212319A1, “NOVEL ANTIGEN BINDING DOMAINS AND SYNTHETIC ANTIGEN RECEPTORS INCORPORATING THE SAME” (University of Southern California, priority 2020, published 2023).

The test system of this experiment is RAJI cells. Nature of the experiment: JNG assay, co-culture with RAJI cells. The class given is cell-based. The following applies: JNG cells expressing construct, co-culture with Raji. Put shortly: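 Read-out is NFAT-driven GFP measured by flow cytometry after ~4–18 h co-culture of SAR-expressing JNG cells with target cells (E:T about 1:2). SARs were introduced by lentiviral spinfection and selected with puromycin or blasticidin when possible; scores (+/- to 5+ ≈ 5–50% GFP+) are relative to parental JNG cells.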

B1: 22237 (protein)
chain: MALPVTALLLPLALLLHAARPDIQMTQSPSSLSASVGDRVTITCKASDHINNWLAWYQQKPGQAPKLLIYGATTLETGVPSRFSGSGSGTDYTLTISSLQPEDFATYYCQQSWNTPWTFGQGTKLEIKRLEDLKNVFPPEVAVFEPSEAEISHTQKATLVCLATGFYPDHVELSWWVNGKEVHSGVCTDPQPLKEQPALNDSRYCLSSRLRVSATFWQNPRNHFRCQVQFYGLSENDEWTQDRAKPVTQIVSAEAWGRADCGFTSESYQQGVLSATILYEILLGKATLYAVLVSALVLMAMVKRKDSRGRAKRSGSGATNFSLLKQAGDVEENPGPTSATMDWIWRILFLVGAATGAHSGCPKWDAARCSGGGSGPGSGSCQFDLSTRRLKCGSGSCQFDLSTRRLKCGSGGGGSGGGGSGGGGSFEQVQLQQPGAELVKPGASVKMSCKASGYAFSSYWINWMKQKPGQGLEWIGQIYPGDGDTNYNGKFKGRATLTADTSSSTAYMQLSSLTSEDSAVYFCARSITTVVGCAMDYWGQGTSVTVSSTRIQNPDPAVYQLRDSKSSDKSVCLFTDFDSQTNVSQSKDSDVYITDKCVLDMRSMDFKSNSAVAWSNKSDFACANAFNNSIIPEDTFFPSPESSCDVKLVEKSFETDTNLNFQNLSVIGFRILLLKVAGFNLLMTLRLWSSRAKRSGSGVKQTLNFDLLKLAGDVESNPGPSRGHMTEYKPTVRLATRDDVPRAVRTLAAAFADYPATRHTVDPDRHIERVTELQELFLTRVGLDIGKVWVADDGAAVAVWTTPESVEAGAVFAEIGPRMAELSGSRLAAQQQMEGLLAPHRPKEPAWFLATVGVSPDHQGKGLGSAVVLPGVEAAERAGVPAFLETSAPRNLPFYERLGFTVTADVEVPEGPRTWCMTRKPGA
With B1, the “NFAT-GFP ASSAY: Raji” value is “Raji (5+) (refer to approximately 5%, 10%, 20%, 30%, 40% and 50% GFP positive cells)”.

B2: 22236 (protein)
chain: MALPVTALLLPLALLLHAARPDIQMTQSPSSLSASVGDRVTITCKASDHINNWLAWYQQKPGQAPKLLIYGATTLETGVPSRFSGSGSGTDYTLTISSLQPEDFATYYCQQSWNTPWTFGQGTKLEIKRLEDLKNVFPPEVAVFEPSEAEISHTQKATLVCLATGFYPDHVELSWWVNGKEVHSGVCTDPQPLKEQPALNDSRYCLSSRLRVSATFWQNPRNHFRCQVQFYGLSENDEWTQDRAKPVTQIVSAEAWGRADCGFTSESYQQGVLSATILYEILLGKATLYAVLVSALVLMAMVKRKDSRGRAKRSGSGATNFSLLKQAGDVEENPGPTSATMDWIWRILFLVGAATGAHSIYPPLLRTSQAMGSGGPGSGSCQFDLSTRRLKCGSGSCQFDLSTRRLKCGSGGGGSGGGGSGGGGSFEQVQLQQPGAELVKPGASVKMSCKASGYAFSSYWINWMKQKPGQGLEWIGQIYPGDGDTNYNGKFKGRATLTADTSSSTAYMQLSSLTSEDSAVYFCARSITTVVGCAMDYWGQGTSVTVSSTRIQNPDPAVYQLRDSKSSDKSVCLFTDFDSQTNVSQSKDSDVYITDKCVLDMRSMDFKSNSAVAWSNKSDFACANAFNNSIIPEDTFFPSPESSCDVKLVEKSFETDTNLNFQNLSVIGFRILLLKVAGFNLLMTLRLWSSRAKRSGSGVKQTLNFDLLKLAGDVESNPGPSRGHMTEYKPTVRLATRDDVPRAVRTLAAAFADYPATRHTVDPDRHIERVTELQELFLTRVGLDIGKVWVADDGAAVAVWTTPESVEAGAVFAEIGPRMAELSGSRLAAQQQMEGLLAPHRPKEPAWFLATVGVSPDHQGKGLGSAVVLPGVEAAERAGVPAFLETSAPRNLPFYERLGFTVTADVEVPEGPRTWCMTRKPGA
In the case of B2, the “NFAT-GFP ASSAY: Raji” value was “Raji (4+) (refer to approximately 5%, 10%, 20%, 30%, 40% and 50% GFP positive cells)”.

B3: 22239 (protein)
chain: MALPVTALLLPLALLLHAARPACPYINIYNAEPANPSEKNSPTQYAYGTGGGGSGGGGSGGGGSEFDIQMTQSPSSLSASVGDRVTITCKASDHINNWLAWYQQKPGQAPKLLIYGATTLETGVPSRFSGSGSGTDYTLTISSLQPEDFATYYCQQSWNTPWTFGQGTKLEIKRLEDLKNVFPPEVAVFEPSEAEISHTQKATLVCLATGFYPDHVELSWWVNGKEVHSGVCTDPQPLKEQPALNDSRYCLSSRLRVSATFWQNPRNHFRCQVQFYGLSENDEWTQDRAKPVTQIVSAEAWGRADCGFTSESYQQGVLSATILYEILLGKATLYAVLVSALVLMAMVKRKDSRGRAKRSGSGATNFSLLKQAGDVEENPGPTSATMDWIWRILFLVGAATGAHSGPQLGPYELWELSHGSGGGGSGGGGSGGGGSFEQVQLQQPGAELVKPGASVKMSCKASGYAFSSYWINWMKQKPGQGLEWIGQIYPGDGDTNYNGKFKGRATLTADTSSSTAYMQLSSLTSEDSAVYFCARSITTVVGCAMDYWGQGTSVTVSSTRIQNPDPAVYQLRDSKSSDKSVCLFTDFDSQTNVSQSKDSDVYITDKCVLDMRSMDFKSNSAVAWSNKSDFACANAFNNSIIPEDTFFPSPESSCDVKLVEKSFETDTNLNFQNLSVIGFRILLLKVAGFNLLMTLRLWSSRAKRSGSGVKQTLNFDLLKLAGDVESNPGPSRGHMTEYKPTVRLATRDDVPRAVRTLAAAFADYPATRHTVDPDRHIERVTELQELFLTRVGLDIGKVWVADDGAAVAVWTTPESVEAGAVFAEIGPRMAELSGSRLAAQQQMEGLLAPHRPKEPAWFLATVGVSPDHQGKGLGSAVVLPGVEAAERAGVPAFLETSAPRNLPFYERLGFTVTADVEVPEGPRTWCMTRKPGA
As for B3, the “NFAT-GFP ASSAY: Raji” value is “Raji (+) (refer to approximately 5%, 10%, 20%, 30%, 40% and 50% GFP positive cells)”.

B4: 22238 (protein)
chain: MALPVTALLLPLALLLHAARPDIQMTQSPSSLSASVGDRVTITCKASDHINNWLAWYQQKPGQAPKLLIYGATTLETGVPSRFSGSGSGTDYTLTISSLQPEDFATYYCQQSWNTPWTFGQGTKLEIKRLEDLKNVFPPEVAVFEPSEAEISHTQKATLVCLATGFYPDHVELSWWVNGKEVHSGVCTDPQPLKEQPALNDSRYCLSSRLRVSATFWQNPRNHFRCQVQFYGLSENDEWTQDRAKPVTQIVSAEAWGRADCGFTSESYQQGVLSATILYEILLGKATLYAVLVSALVLMAMVKRKDSRGRAKRSGSGATNFSLLKQAGDVEENPGPTSATMDWIWRILFLVGAATGAHSQLGPYELWELSHGSGSGSGSQLGPYELWELSHSGGGSGQLGPYELWELSHGSSGPEVQLVESGGGLVQAGGSLRLSCAASGRTFSMGWFRQAPGKEREFVAAITYSGGSPYYADSVKGRFTISRDNAKNTVYLQMNSLKPEDTAVYYCAANPTYGSDWNAENWGQGTQVTVSSGSGGGGSGGGGSGGGGSFEQVQLQQPGAELVKPGASVKMSCKASGYAFSSYWINWMKQKPGQGLEWIGQIYPGDGDTNYNGKFKGRATLTADTSSSTAYMQLSSLTSEDSAVYFCARSITTVVGCAMDYWGQGTSVTVSSTRIQNPDPAVYQLRDSKSSDKSVCLFTDFDSQTNVSQSKDSDVYITDKCVLDMRSMDFKSNSAVAWSNKSDFACANAFNNSIIPEDTFFPSPESSCDVKLVEKSFETDTNLNFQNLSVIGFRILLLKVAGFNLLMTLRLWSSRAKRSGSGVKQTLNFDLLKLAGDVESNPGPSRGHMTEYKPTVRLATRDDVPRAVRTLAAAFADYPATRHTVDPDRHIERVTELQELFLTRVGLDIGKVWVADDGAAVAVWTTPESVEAGAVFAEIGPRMAELSGSRLAAQQQMEGLLAPHRPKEPAWFLATVGVSPDHQGKGLGSAVVLPGVEAAERAGVPAFLETSAPRNLPFYERLGFTVTADVEVPEGPRTWCMTRKPGA
With B4, the “NFAT-GFP ASSAY: Raji” value is “Raji (+) (refer to approximately 5%, 10%, 20%, 30%, 40% and 50% GFP positive cells)”.
